# Reference: US20120269821A1
# Tests used:
# Experiment in all cases: cell-based or functional assay
# Du422.1 envelope (HIV-1) = molecular target: Du422.1 envelope (HIV-1)
# [1] = molecular target: ZM197M.PB7 envelope (HIV-1)
# B.SF162 envelope (HIV-1) = molecular target: B.SF162 envelope (HIV-1)
# [2] = molecular target: CAP206.1.B5 envelope (HIV-1)
# [3] = molecular target: QH0692.42 envelope (HIV-1)
# C.TV-1 envelope (HIV-1) = molecular target: C.TV-1 envelope (HIV-1)
# [4] = molecular target: Du156.12 envelope (HIV-1)
# [5] = molecular target: SC422661.8 envelope (HIV-1)
# TRO.11 envelope (HIV-1) = molecular target: TRO.11 envelope (HIV-1)
# [6] = molecular target: B.BG1168 envelope (HIV-1)
# [7] = molecular target: COT6.15 envelope I675A (HIV-1)
# [8] = molecular target: COT6.15 envelope L669A (HIV-1)
# [9] = molecular target: COT6.15 envelope K667A (HIV-1)
# [10] = molecular target: COT6.15 envelope D664A (HIV-1)
# [11] = molecular target: COT6.15 envelope, wild type (HIV-1)
# [12] = molecular target: COT6.15 envelope W680A (HIV-1)
# [13] = molecular target: COT6.15 envelope W678A (HIV-1)
# [14] = molecular target: COT6.15 envelope L663A (HIV-1)
# [15] = molecular target: COT6.15 envelope D674N (HIV-1)
# [16] = molecular target: COT6.15 envelope T676A (HIV-1)
# [17] = molecular target: COT6.15 envelope W672A (HIV-1)
# [18] = molecular target: COT6.15 envelope D674S (HIV-1)
# [19] = molecular target: COT6.15 envelope A662G (HIV-1)
# [20] = molecular target: COT6.15 envelope K677A (HIV-1)
# [21] = molecular target: COT6.15 envelope W670A (HIV-1)
# [22] = molecular target: COT6.15 envelope W666A (HIV-1)
# [23] = molecular target: COT6.15 envelope N668A (HIV-1)
# [24] = molecular target: COT6.15 envelope S665A (HIV-1)
# [25] = molecular target: COT6.15 envelope L679A (HIV-1)
# [26] = molecular target: COT6.15 envelope F673A (HIV-1)
# [27] = molecular target: COT6.15 envelope S671A (HIV-1)
# [28] = molecular target: COT6.15 envelope D674A (HIV-1)
substance,measurement,setting,value
mAb 2F5 (Polymun Scientific) (antibody),IC50 in TZM-bl cells,Du422.1 envelope (HIV-1),> 25000 µg/mL
same,IC50 in TZM-bl/FcγRI cells,Du422.1 envelope (HIV-1),> 25000 µg/mL
same,IC50 in TZM-bl cells,[1],> 25000 µg/mL
same,IC50 in TZM-bl/FcγRI cells,[1],60 µg/mL
same,50% neutralization level,B.SF162 envelope (HIV-1),0.1 µg/mL
same,IC50 in TZM-bl cells,[2],> 25000 µg/mL
same,IC50 in TZM-bl/FcγRI cells,[2],> 25000 µg/mL
same,IC50 in TZM-bl cells,[3],1810 µg/mL
same,IC50 in TZM-bl/FcγRI cells,[3],< 10 µg/mL
same,50% neutralization level,C.TV-1 envelope (HIV-1),10.9 µg/mL
same,IC50 in TZM-bl cells,[4],> 25000 µg/mL
same,IC50 in TZM-bl/FcγRI cells,[4],> 25000 µg/mL
same,IC50 in TZM-bl/FcγRI cells,[5],< 10 µg/mL
same,IC50 in TZM-bl cells,TRO.11 envelope (HIV-1),> 25000 µg/mL
same,50% neutralization level,[6],0.32 µg/mL
mAb 4E10 (antibody),"IC50, pseudovirus neutralization",[7],0.04 µg/mL
same,Ratio (mutant IC50)/(wild-type IC50),[7],0
same,"IC50, pseudovirus neutralization",[8],0.05 µg/mL
same,Ratio (mutant IC50)/(wild-type IC50),[8],0.1
same,IC50 in TZM-bl cells,Du422.1 envelope (HIV-1),300 µg/mL
same,IC50 in TZM-bl/FcγRI cells,Du422.1 envelope (HIV-1),< 10 µg/mL
same,IC50 in TZM-bl cells,[1],1100 µg/mL
same,IC50 in TZM-bl/FcγRI cells,[1],< 10 µg/mL
same,"IC50, pseudovirus neutralization",[9],0.05 µg/mL
same,Ratio (mutant IC50)/(wild-type IC50),[9],0.1
same,"IC50, pseudovirus neutralization",[10],0.77 µg/mL
same,Ratio (mutant IC50)/(wild-type IC50),[10],0.9
same,IC50 in TZM-bl cells,[2],0.1
same,IC50 in TZM-bl/FcγRI cells,[2],< 10 µg/mL
same,"IC50, pseudovirus neutralization",[11],0.9 µg/mL
same,"IC50, pseudovirus neutralization",[12],10.9 µg/mL
same,Ratio (mutant IC50)/(wild-type IC50),[12],12.1
same,"IC50, pseudovirus neutralization",[13],0.05 µg/mL
same,Ratio (mutant IC50)/(wild-type IC50),[13],0.1
same,IC50 in TZM-bl cells,[3],6500 µg/mL
same,IC50 in TZM-bl/FcγRI cells,[3],110 µg/mL
same,"IC50, pseudovirus neutralization",[14],0.02 µg/mL
same,Ratio (mutant IC50)/(wild-type IC50),[14],0
same,"IC50, pseudovirus neutralization",[15],0.33 µg/mL
same,Ratio (mutant IC50)/(wild-type IC50),[15],0.4
same,"IC50, pseudovirus neutralization",[16],21.8 µg/mL
same,Ratio (mutant IC50)/(wild-type IC50),[16],24.2
same,"IC50, pseudovirus neutralization",[17],> 25 µg/mL
same,Ratio (mutant IC50)/(wild-type IC50),[17],> 25
same,IC50 in TZM-bl cells,[4],200 µg/mL
same,IC50 in TZM-bl/FcγRI cells,[4],< 10 µg/mL
same,"IC50, pseudovirus neutralization",[18],2.49 µg/mL
same,Ratio (mutant IC50)/(wild-type IC50),[18],2.8
same,"IC50, pseudovirus neutralization",[19],0.12 µg/mL
same,Ratio (mutant IC50)/(wild-type IC50),[19],0.1
same,"IC50, pseudovirus neutralization",[20],0.05 µg/mL
same,Ratio (mutant IC50)/(wild-type IC50),[20],0.1
same,"IC50, pseudovirus neutralization",[21],0.11 µg/mL
same,Ratio (mutant IC50)/(wild-type IC50),[21],0.1
same,IC50 in TZM-bl/FcγRI cells,[5],< 10 µg/mL
same,"IC50, pseudovirus neutralization",[22],0.51 µg/mL
same,Ratio (mutant IC50)/(wild-type IC50),[22],0.6
same,"IC50, pseudovirus neutralization",[23],1.3 µg/mL
same,Ratio (mutant IC50)/(wild-type IC50),[23],1.4
same,IC50 in TZM-bl cells,TRO.11 envelope (HIV-1),300 µg/mL
same,"IC50, pseudovirus neutralization",[24],0.14 µg/mL
same,Ratio (mutant IC50)/(wild-type IC50),[24],0.2
same,"IC50, pseudovirus neutralization",[25],0.09 µg/mL
same,Ratio (mutant IC50)/(wild-type IC50),[25],0.1
same,"IC50, pseudovirus neutralization",[26],> 25 µg/mL
same,Ratio (mutant IC50)/(wild-type IC50),[26],> 25
same,"IC50, pseudovirus neutralization",[27],0.04 µg/mL
same,Ratio (mutant IC50)/(wild-type IC50),[27],0
same,"IC50, pseudovirus neutralization",[28],1.4 µg/mL
same,Ratio (mutant IC50)/(wild-type IC50),[28],1.6
mAb Z13e1 (antibody),IC50 in TZM-bl cells,[1],30
same,IC50 in TZM-bl cells,[3],46000 µg/mL
same,IC50 in TZM-bl cells,[4],4700 µg/mL
same,IC50 in TZM-bl cells,TRO.11 envelope (HIV-1),13300 µg/mL
recombinant 2F5 IgG antibody,50% neutralization level,B.SF162 envelope (HIV-1),0.3 µg/mL
same,50% neutralization level,C.TV-1 envelope (HIV-1),34.5 µg/mL
same,50% neutralization level,[6],1.17 µg/mL
